Results published in the supplement of paper PMC11780869.

System: Bacillus subtilis
Experiment: cleaved RNA product abundance (RNA/gDNA barcode ratio) relative to median wild-type variant (ratio to wild type); higher = more accumulation of the downstream cleavage product
Conditions: cleavage site: cggR-gapA (positions -7 to +36 mutated)
Outline: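 Cleaved product abundance was measured with barcoded reporter mRNAs (truncated aprE or tetM) carrying mutagenized RNase Y cleavage-site windows in the B. subtilis chromosome. Cultures in LB at 37°C grew from OD600 0.0003 to 0.3. Gel-selected cleaved RNA was reverse transcribed and barcode-sequenced with genomic DNA barcodes, and the RNA:gDNA barcode ratio per construct was scaled to the median construct bearing the unmutated site.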

[1] = experiment (reporter, strain, medium): exp 2b: truncated aprE reporter, strain BJT200
[2] = experiment (reporter, strain, medium): exp 4a: truncated aprE reporter, strain BJT201 with 2% xylose (RNase J1 expressed)

Sequence	cleaved RNA product abundance [1]	cleaved RNA product abundance [2]
ACAGACGAAGGAGCCGCAAAGAAGTTATTAAGTGATGAATAATCGCTCAATATAAATATCTCTCACTTATTTAAA	0.522	–
ACAGACGAAGGAGCCGCAAAGAAGTTATTAAGTGATGAATAATCTCTCAATATAAATATCTCTCACTTATTTAAA	0.113	0.172
ACAGACGAAGGAGCCGCAAAGAAGTTATTAAGTGATGAATAATGCCTCAATATAAATATCTCTCACTTATTTAAA	0.1	–
ACAGACGAAGGAGCCGCAAAGAAGTTATTAAGTGATGAATAATTCCTCAATATAAATATCTCTCACTTATTTAAA	0.0685	0.14
ACAGACGAAGGAGCCGCAAAGAAGTTATTAAGTGATGAATACTCCCTCAATATAAATATCTCTCACTTATTTAAA	–	0.181
ACAGACGAAGGAGCCGCAAAGAAGTTATTAAGTGATGAATAGTCCCTCAATATAAATATCTCTCACTTATTTAAA	–	0.14
ACAGACGAAGGAGCCGCAAAGAAGTTATTAAGTGATGAATATTCCCTAAATATAAATATCTCTCACTTATTTAAA	0.115	–
ACAGACGAAGGAGCCGCAAAGAAGTTATTAAGTGATGAATATTCCCTCAATATAAATATCTCTCACTTATTTAAA	–	0.102
ACAGACGAAGGAGCCGCAAAGAAGTTATTAAGTGATGAATCATCCCTCAATATAAATATCTCTCACTTATTTAAA	0.125	0.147
ACAGACGAAGGAGCCGCAAAGAAGTTATTAAGTGATGAATTATCCCTCAATATAAATATCTCTCACTTATTTAAA	0.104	0.249
ACAGACGAAGGAGCCGCAAAGAAGTTATTAAGTGATGACTAATCCCTCAATATAAATATCTCTCACTTATTTAAA	0.081	0.111
ACAGACGAAGGAGCCGCAAAGAAGTTATTAAGTGATGATTAATCCCTCAATATAAATATCTCTCACTTATTTAAA	0.112	–
ACAGACGAAGGAGCCGCAAAGAAGTTATTAAGTGATGTATAATCCCTCAATATAAATATCTCTCACTTATTTAAA	0.088	0.144
ACAGACGAAGGAGCCGCAAAGAAGTTATTAAGTGATTAATAATCCCTCAATATAAATATCTCTCACTTATTTAAA	0.112	0.0979
ACAGACGAAGGAGCCGCAAAGAAGTTATTAAGTGGTGAATAATCCCTCAATATAAATATCTCTCACTTATTTAAA	–	0.103
ACAGACGAAGGAGCCGCAAAGAAGTTATTAAGTGTTGAATAATCCCTTAATATAAATATCTCTCACTTATTTAAA	–	0.146
ACAGACGAAGGAGCCGCAAAGAAGTTATTAAGTTATGAATAATCCCTCAATATAAATAACTCTCACTTATTTAAA	–	0.117
ACAGACGAAGGAGCCGCAAAGAAGTTATTAAGTTATGAATAATCCCTCAATATAAATATCTCTCACTTATTTAAA	0.0915	0.13
ACAGACGAAGGAGCCGCAAAGAAGTTATTAAGTTATGAATAATCCGTCAATATAAATATCTCTCACTTATTTAAA	0.078	–
ACAGACGAAGGAGCCGCAAAGAAGTTATTAATAGATGAATAATCCCTCAATATAAATATCTCTCACTTATTTAAA	0.0972	0.116

Sequence	cleaved RNA product abundance [1]	cleaved RNA product abundance [2]
ACAGACGAAGGAGCCGCAAAGAAGTTATTAATAGATTAATAATCCCTCAATATAAATATCTCTCACTTATTTAAA	–	0.135
ACAGACGAAGGAGCCGCAAAGAAGTTATTAATCGATGAATAATCCCTCAATATAAATATCTCTCACTTATTTAAA	–	0.164
ACAGACGAAGGAGCCGCAAAGAAGTTATTAATGAATGAATAAACCCTCAATATAAATATCTCTCACTTATTTAAA	–	0.133
ACAGACGAAGGAGCCGCAAAGAAGTTATTAATGAATGAATAATCCCTCAATATAAATATCTCTCACTTATTTAAA	0.0941	0.137
ACAGACGAAGGAGCCGCAAAGAAGTTATTAATGCATGAATAATCCCTCAATATAAATATCTCTCACTTATTTAAA	0.0867	0.0823
ACAGACGAAGGAGCCGCAAAGAAGTTATTAATGGAAGAATAATCCCTCAATATAAATATCTCTCACTTATTTAAA	0.0884	0.114
ACAGACGAAGGAGCCGCAAAGAAGTTATTAATGGACGAATAATCCCTCAATATAAATATCTCTCACTTATTTAAA	0.0737	0.0953
ACAGACGAAGGAGCCGCAAAGAAGTTATTAATGGATAAATAATCCCTCAATATAAATATCTCTCACTTATTTAAA	0.102	0.116
ACAGACGAAGGAGCCGCAAAGAAGTTATTAATGGATCAATAATCCCTCAATATAAATATCTCTCACTTATTTAAA	0.0839	0.127
ACAGACGAAGGAGCCGCAAAGAAGTTATTAATGGATGAAAAATCCCTCAATATAAATATCTCTCACTTATTTAAA	0.111	0.166
ACAGACGAAGGAGCCGCAAAGAAGTTATTAATGGATGAACAATCCCTCAATATAAATATCTCTCACTTATTTAAA	–	0.143
ACAGACGAAGGAGCCGCAAAGAAGTTATTAATGGATGAATAAACCCTCAATATAAATATCTCTCACTTATTTAAA	0.0999	0.107
ACAGACGAAGGAGCCGCAAAGAAGTTATTAATGGATGAATAACCCCTCAATATAAATATCTCTCACTTATTTAAA	0.0893	0.0925
ACAGACGAAGGAGCCGCAAAGAAGTTATTAATGGATGAATAAGCCCTCAATATAAATATCTCTCACTTATTTAAA	–	0.107
ACAGACGAAGGAGCCGCAAAGAAGTTATTAATGGATGAATAATACCTCAATATAAATATCTCTCACTTATTTAAA	0.0824	0.126
ACAGACGAAGGAGCCGCAAAGAAGTTATTAATGGATGAATAATCACTCAATATAAATATCTCTCACTTATTTAAA	0.106	0.141
ACAGACGAAGGAGCCGCAAAGAAGTTATTAATGGATGAATAATCACTTAATATAAATATCTCTCACTTATTTAAA	–	0.194
ACAGACGAAGGAGCCGCAAAGAAGTTATTAATGGATGAATAATCCATCAATATAAATATCTCTCACTTATTTAAA	0.667	1.21
ACAGACGAAGGAGCCGCAAAGAAGTTATTAATGGATGAATAATCCCACAATATAAATATCTCTCACTTATTTAAA	0.0949	0.156
